In publication PMC9972320:

What was measured:
[1] = target: MSI1 RRM12 (human, UniProt O43347 20-191); experiment: ITC; 3 mM MgCl2; ITC: 20 mM HEPES pH 7.5, 150 mM NaCl, 3 mM MgCl2, 25 C; […]; settings: protein: recombinant, tags: GST tag (pGEX-6p-1) removed by PreScission
[2] = target: MSI1 RRM12 K21A/F23A (human, UniProt O43347 20-191, K21A;F23A); experiment: ITC; not impaired; 3 mM MgCl2; ITC: 20 mM HEPES pH 7.5, 150 mM NaCl, 3 mM MgCl2, 25 C; 30 uM RNA in cell, 600 uM protein titrant; settings: protein: recombinant; tags: GST tag removed by PreScission; three-way junction with P4 and pseudoknots
Sequence of MSI1 RRM12 K21A/F23A (O43347 20-191 K21A/F23A): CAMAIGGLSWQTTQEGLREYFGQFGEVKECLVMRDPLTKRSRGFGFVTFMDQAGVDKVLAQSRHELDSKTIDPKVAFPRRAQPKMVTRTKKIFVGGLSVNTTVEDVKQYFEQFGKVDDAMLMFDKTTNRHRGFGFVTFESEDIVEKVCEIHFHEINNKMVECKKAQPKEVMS

[3] = target: MSI1 RRM12 F63A/F65A (human, UniProt O43347 20-191, F63A;F65A); experiment: as above; settings: protein: recombinant; tags: GST tag removed by PreScission; three-way junction with P4 and pseudoknots
Sequence of MSI1 RRM12 F63A/F65A (O43347 20-191 F63A/F65A): as the sequence (O43347 20-191 K21A/F23A) above, with A2K, A4F, F44A, F46A counted along it

Sequence of MSI1 RRM12 (O43347 20-191): as the sequence (O43347 20-191 K21A/F23A) above, with A2K, A4F counted along it

B1: ZIKV xrRNA2 P2M/P4M (structured_RNA)
RNA: GAUAGUCAGGCCCGAAAGGCCAUGGCACGGAAGAAGCCAUGCUGCCUGUGAGCCCCUCCCGAAAGGGAGU
binding result ([1]; folded): no binding

B2: DENV4 xrRNA mutant (DxM) (structured_RNA)
RNA: UGUAGUCAGGCCGAGAACGCCACGGUUUGAGCAAACCGUGCUGCCUGUAGCUCCGCCAAUAAUGGGAGGCG
Kd ([1]; folded): 2540 ± 310 nM

B3: DENV4 xrRNA (structured_RNA)
RNA: UGAAGUCAGGCCACUUGUGCCACGGUUUGAGCAAACCGUGCUGCCUGUAGCUCCGCCAAUAAUGGGAGGCG
binding result ([1]; folded): no binding

B4: ZIKV xrRNA2 (structured_RNA)
RNA: GAUAGUCAGGCCGAGAACGCCAUGGCACGGAAGAAGCCAUGCUGCCUGUGAGCCCCUCAGAGGACACUGAGU
Kd ([1]; three-way junction with P4 and pseudoknots): 1900 ± 800 nM | binding result [2]: binds | binding result [3]: binds
